Numbered stars: 1 amine (or outer) side, 2 acyl side, 3 side chain; on linkers, the order of the positions; unused ones are H or OH. Square brackets hold non-standard residues; d marks the D form. Ends that are not written are not given here. βAsp = O=C(O)[C@H](CC(=O)[*:2])N[*:1]
Molecular target: mouse-anti-β-COMP sera (polyclonal antiserum specific for the human COMP derived sequence AQEDβSDH)
Assay: competitive ELISA: free peptide competes with biotinylated β-COMP on streptavidin plates for the mouse anti-β-COMP serum

IC50 [µg/mL] | Binder
0.435 | AQEDSDH [α-COMP peptide (non-isomerised (α) form of the COMP peptide)]
0.038 | AQE[βAsp]SDH
